# Reference: publication PMC11157482
# Target: Aβ42 wild-type (UniProt P05067)
# Test: fluorescence correlation spectroscopy (FCS); oligomers formed from S8C-Alexa488 and WT Aβ42 monomers 1:1.5 (labeled/unlabeled), about 10 μM total, 37 °C, stopped at t1/2; fibrils removed by centrifugation, oligomeric fraction isolated on Superdex 75; measured alone (three replicates) or with unlabeled WT fibrils (six replicates) 3-7 min after start, 37 °C, 20 mM sodium phosphate, 0.2 mM EDTA, pH 8.0; three-component fit (free dye, monomer, oligomer)
substance,measurement,value
Alexa-488-labeled Aβ42-S8C (peptide),oligomer dissociation half-life (in the presence of unlabeled WT fibrils),< 7 min
same,stoichiometry N,37 monomers
